{"source": "patent US20220363718A1", "about": "(Bicycle, published 2022)", "binders": {"B1": {"name": "Example 8 (peptide)", "peptide": "CQWLEDCWRGXC", "modifications": "not fully specified; N-term acetyl; CQWLEDCWRG[4F3ClPhe]C as printed; 3 Cys on TATA"}, "B2": {"name": "Example 154 (peptide)", "peptide": "CQWXEDCWRGXC", "modifications": "not fully specified; N-term acetyl; CQW[LMe]EDCWRG[4-FPhe]C as printed; 3 Cys on TATA"}, "B3": {"name": "Example 250 (peptide)", "peptide": "X1-C[NMeA][Trp(1-Me)][tBuAla]QDC[Trp(1-Me)][Arg(Me2a)]G[Phe(4-F)]C-NH2", "modifications": "linker 1-7-12 via TATA; also: trimer: three peptides clicked via N-terminal azido linker to N-but-3-yn-1-yl-N2,N6-dipent-4-ynoyl-L-lysinamide core", "notes": "Trimer of identical bicyclic peptides on a tri-alkyne lysinamide core (formula with F3, S9)"}, "B4": {"name": "Example 158 (peptide)", "peptide": "CQWLEDCWRGXC", "modifications": "not fully specified; N-term acetyl; CQWLEDCWRG[3-PyrA]C as printed; 3 Cys on TATA"}, "B5": {"name": "Example 251 (peptide)", "peptide": "{N3CH2C(O)NH(CH2CH2O)2CH2C(O)}-C[NMeA][Trp(1-Me)][tBuAla]QDC[Trp(1-Me)][Arg(Me2a)]G[Phe(4-F)]C-NH2", "modifications": "linker 1-7-12 via TATA; also: dimer: peptides clicked via N-terminal azido linker to N2,N6-dipent-4-ynoyl-L-lysine core (source also calls it trimeric)", "notes": "Claim 16 speaks of a dimeric or trimeric moiety"}, "B6": {"name": "Example 160 (peptide)", "peptide": "CQWXEDCWRGXC", "modifications": "not fully specified; N-term acetyl; CQW[4-MenL]EDCWRG[4-FPhe]C as printed; 3 Cys on TATA"}, "B7": {"name": "Example 153 (peptide)", "peptide": "CQWLEDCWRGXC", "modifications": "not fully specified; N-term acetyl; CQWLEDCWRG[PentFPhe]C as printed; 3 Cys on TATA"}, "B8": {"name": "Example 157 (peptide)", "peptide": "CQWLEDCWRGXC", "modifications": "not fully specified; N-term acetyl; CQWLEDCWRG[4-PyrA]C as printed; 3 Cys on TATA"}, "B9": {"name": "Example 11 (peptide)", "peptide": "CQWLEDCWRGXC", "modifications": "not fully specified; N-term acetyl; CQWLEDCWRG[3,4diClPhe]C as printed; 3 Cys on TATA"}, "B10": {"name": "Example 4 (peptide)", "peptide": "CQWXEDCWRGXC", "modifications": "not fully specified; N-term acetyl; CQW[tBuA]EDCWRG[4-FPhe]C as printed; 3 Cys on TATA"}}, "key": {"Biotinylated human TSLP [1]": {"target": "T1, Biotinylated human TSLP (human, biotinylated)", "T1 construct": "also called hTSLP; thymic stromal lymphopoietin", "T1 sequence (chain, as listed by the source limits assumed)": "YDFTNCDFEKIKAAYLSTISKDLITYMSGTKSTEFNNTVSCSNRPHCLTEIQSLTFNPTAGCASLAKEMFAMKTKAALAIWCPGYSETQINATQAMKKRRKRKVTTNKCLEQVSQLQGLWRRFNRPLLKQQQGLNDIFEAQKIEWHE", "assay": "SPR, biotinylated hTSLP on streptavidin chip; Example 146, Ac-(SEQ ID NO: 105)"}, "[2]": {"target": "T2, Biotinylated human TSLP (hTSLP(29-159)-Avi) (human, biotinylated (C-terminal Avi-tag))", "T2 construct": "also called thymic stromal lymphopoietin", "T2 sequence (chain, as listed by the source limits assumed)": "as above", "assay": "SPR, biotinylated hTSLP on streptavidin chip, peptide injected"}, "Biotinylated human TSLP [3]": {"target": "T1, Biotinylated human TSLP", "assay": "SPR, biotinylated hTSLP on streptavidin chip; Example 8, Ac-(SEQ ID NO: 6)"}, "Biotinylated human TSLP [4]": {"target": "T1, Biotinylated human TSLP", "assay": "SPR, biotinylated hTSLP on streptavidin chip; Example 148, Ac-(SEQ ID NO: 107)"}, "Biotinylated human TSLP [5]": {"target": "T1, Biotinylated human TSLP", "assay": "SPR, biotinylated hTSLP on streptavidin chip; Example 154, Ac-(SEQ ID NO: 113)"}, "[6]": {"target": "TSLP (as used in the human PBMC assay) (UniProt Q969D9 29-159)", "assay": "cell-based or functional assay"}, "Biotinylated human TSLP [7]": {"target": "T1, Biotinylated human TSLP", "assay": "SPR, biotinylated hTSLP on streptavidin chip; Example 158, Ac-(SEQ ID NO: 116)"}, "Biotinylated human TSLP [8]": {"target": "T1, Biotinylated human TSLP", "assay": "SPR, biotinylated hTSLP on streptavidin chip; Example 160, Ac-(SEQ ID NO: 118)"}, "Biotinylated human TSLP [9]": {"target": "T1, Biotinylated human TSLP", "assay": "SPR, biotinylated hTSLP on streptavidin chip; Example 14, Ac-(SEQ ID NO: 12)"}, "Biotinylated human TSLP [10]": {"target": "T1, Biotinylated human TSLP", "assay": "SPR, biotinylated hTSLP on streptavidin chip; Example 153, Ac-(SEQ ID NO: 112)"}, "Biotinylated human TSLP [11]": {"target": "T1, Biotinylated human TSLP", "assay": "SPR, biotinylated hTSLP on streptavidin chip; Example 157, Ac-(SEQ ID NO: 115)"}, "Biotinylated human TSLP [12]": {"target": "T1, Biotinylated human TSLP", "assay": "SPR, biotinylated hTSLP on streptavidin chip; Example 11, Ac-(SEQ ID NO: 9)"}, "Biotinylated human TSLP [13]": {"target": "T1, Biotinylated human TSLP", "assay": "SPR, biotinylated hTSLP on streptavidin chip; Example 4, Ac-(SEQ ID NO: 4)"}}, "note": "*1 amine or outer side, *2 acyl side, *3 side chain or, on linkers, in order; H or OH if unused. Bridges are numbered along the chain shown (N, C = ends). Where no end group is shown, it is not given here. [ ]: non-standard residue; d: D form. The star is where a group is joined. X1 = N3CH2C(O)NH(CH2CH2O)3CH2CH2(CO), [N-]=[N+]=NCC(=O)NCCOCCOCCOCCC(=O)*; N3CH2C(O)NH(CH2CH2O)2CH2C(O) = [N-]=[N+]=NCC(=O)NCCOCCOCC(=O)*; TATA = O=C(CC[*:1])N1CN(C(=O)CC[*:2])CN(C(=O)CC[*:3])C1; Trp(1-Me) = Cn1cc(C[C@H](N)C(=O)O)c2ccccc21; Arg(Me2a) = CN(C)C(=N)NCCC[C@H](N)C(=O)O; Phe(4-F) = N[C@@H](Cc1ccc(F)cc1)C(=O)O; tBuAla = CC(C)(C)C[C@H](N)C(=O)O; NMeA = CN[C@@H](C)C(=O)O", "data": [{"binder": "CQWLEDCWRGXC (N-term acetyl; CQWLEDCWRG[2PyrA]C as printed; 3 Cys on TATA)", "note": "[Example 146]", "values": [{"measurement": "Kd", "setting": "Biotinylated human TSLP [1]", "result": 910, "unit": "nM"}]}, {"binder": "ACQEHDWYCLLYQPECA (linker 2-9-16 via TATA; not fully specified (C-terminus))", "note": "[Example 231]", "values": [{"measurement": "Kd", "setting": "[2]", "result": 1800, "unit": "nM"}]}, {"binder": "B1", "values": [{"measurement": "Kd", "setting": "Biotinylated human TSLP [3]", "result": 4, "unit": "nM"}]}, {"binder": "CQWLEDCWRGXC (N-term acetyl; CQWLEDCWRG[BnA]C as printed; 3 Cys on TATA)", "note": "[Example 148]", "values": [{"measurement": "Kd", "setting": "Biotinylated human TSLP [4]", "result": 1100, "unit": "nM"}]}, {"binder": "B2", "values": [{"measurement": "Kd", "setting": "Biotinylated human TSLP [5]", "result": 2900, "unit": "nM"}]}, {"binder": "B3", "values": [{"measurement": "Kd", "setting": "[2]", "result": 0.027, "unit": "nM"}, {"measurement": "CCL17 % Inhibition @ 10 µM, 50 pM TSLP", "setting": "[6]", "result": 83, "unit": "%"}, {"measurement": "CCL17 % Inhibition @ 10 µM, 400 pM TSLP", "setting": "[6]", "result": 59, "unit": "%"}]}, {"binder": "ACDELDIPCWIFKTLCA (linker 2-9-16 via TATA; not fully specified (C-terminus))", "note": "[Example 232]", "values": [{"measurement": "Kd", "setting": "[2]", "result": 8300, "unit": "nM"}]}, {"binder": "B4", "values": [{"measurement": "Kd", "setting": "Biotinylated human TSLP [7]", "result": 5400, "unit": "nM"}]}, {"binder": "CDWHWEYDCWLSCANSEFE (linker 1-9-13 via TATA; not fully specified (C-terminus))", "note": "[Example 227]", "values": [{"measurement": "Kd", "setting": "[2]", "result": 740, "unit": "nM"}]}, {"binder": "B5", "values": [{"measurement": "Kd", "setting": "[2]", "result": 0.14, "unit": "nM"}, {"measurement": "CCL17 % Inhibition @ 10 µM, 50 pM TSLP", "setting": "[6]", "result": 87, "unit": "%"}, {"measurement": "CCL17 % Inhibition @ 10 µM, 400 pM TSLP", "setting": "[6]", "result": 85, "unit": "%"}]}, {"binder": "B6", "values": [{"measurement": "Kd", "setting": "Biotinylated human TSLP [8]", "result": 10000, "unit": "nM"}]}, {"binder": "ACALDPWVCPQWWDCA (linker 2-9-15 via TATA; not fully specified (C-terminus))", "note": "[Example 230]", "values": [{"measurement": "Kd", "setting": "[2]", "result": 960, "unit": "nM"}]}, {"binder": "ACSLDPWSCHNWWTCA (linker 2-9-15 via TATA; not fully specified (C-terminus))", "note": "[Example 229]", "values": [{"measurement": "Kd", "setting": "[2]", "result": 9900, "unit": "nM"}]}, {"binder": "CQWLEDCWRGXC (N-term acetyl; CQWLEDCWRG[4-ClPhe]C as printed; 3 Cys on TATA)", "note": "[Example 14]", "values": [{"measurement": "Kd", "setting": "Biotinylated human TSLP [9]", "result": 6, "unit": "nM"}]}, {"binder": "B7", "values": [{"measurement": "Kd", "setting": "Biotinylated human TSLP [10]", "result": 2700, "unit": "nM"}]}, {"binder": "B8", "values": [{"measurement": "Kd", "setting": "Biotinylated human TSLP [11]", "result": 3900, "unit": "nM"}]}, {"binder": "B9", "values": [{"measurement": "Kd", "setting": "Biotinylated human TSLP [12]", "result": 5.8, "unit": "nM"}]}, {"binder": "B10", "values": [{"measurement": "Kd", "setting": "Biotinylated human TSLP [13]", "result": 2.7, "unit": "nM"}]}, {"binder": "CDWHWEYDCWLSCGAGESS (linker 1-9-13 via TATA; not fully specified (C-terminus))", "note": "[Example 228]", "values": [{"measurement": "Kd", "setting": "[2]", "result": 2300, "unit": "nM"}]}]}
